Source: the supplement of paper PMC9112550, “Optimization of the antimicrobial peptide Bac7 by deep mutational scanning” (BMC Biology, 2022)

test system: Escherichia coli TOP10; experiment: shrunken log2 fold change of peptide-encoding DNA abundance (4.5 h post-induction vs induction); higher = less antimicrobial activity (less host growth inhibition); details: time post-induction: 4.5 h; library: site-saturation at positions 5, 18, 19, 20
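Also: peptides expressed intracellularly from a pBAD plasmid library in pooled LB shake-flask culture, induced with 0.3% L-arabinose, DNA abundance read by NGS, three biological replicates, DESeq2 with apeglm shrinkage.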

Sequence | shrunken log2 fold change
RRIRMRPPRLPRPRPRPTWPPRP | 0.837
RRIRMRPPRLPRPRPRPTWSPRP | 0.66
RRIRMRPPRLPRPRPRPTWTPRP | 0.667
RRIRMRPPRLPRPRPRPTYLPRP | -0.497
RRIRMRPPRLPRPRPRPTYPPRP | -0.0846
RRIRMRPPRLPRPRPRPVCAPRP | 0.698
RRIRMRPPRLPRPRPRPVCMPRP | 0.392
RRIRMRPPRLPRPRPRPVCSPRP | -0.0933
RRIRMRPPRLPRPRPRPVDTPRP | 0.361
RRIRMRPPRLPRPRPRPVDVPRP | -0.163
RRIRMRPPRLPRPRPRPVECPRP | -0.117
RRIRMRPPRLPRPRPRPVESPRP | 0.00581
RRIRMRPPRLPRPRPRPVFFPRP | 0.207
RRIRMRPPRLPRPRPRPVFSPRP | 0.314
RRIRMRPPRLPRPRPRPVGDPRP | 0.173
RRIRMRPPRLPRPRPRPVHAPRP | 1.18
RRIRMRPPRLPRPRPRPVHLPRP | -0.0129
RRIRMRPPRLPRPRPRPVHMPRP | -0.318
RRIRMRPPRLPRPRPRPVHQPRP | -0.112
RRIRMRPPRLPRPRPRPVLMPRP | 0.229

Sequence | shrunken log2 fold change
RRIRMRPPRLPRPRPRPVLRPRP | 0.106
RRIRMRPPRLPRPRPRPVMWPRP | 0.624
RRIRMRPPRLPRPRPRPVMYPRP | -0.0366
RRIRMRPPRLPRPRPRPVNFPRP | -0.114
RRIRMRPPRLPRPRPRPVNYPRP | -0.0244
RRIRMRPPRLPRPRPRPVQTPRP | 0.0257
RRIRMRPPRLPRPRPRPVRRPRP | 0.447
RRIRMRPPRLPRPRPRPVSQPRP | 0.712
RRIRMRPPRLPRPRPRPVTRPRP | 0.494
RRIRMRPPRLPRPRPRPVTTPRP | 0.107
RRIRMRPPRLPRPRPRPVVIPRP | -0.174
RRIRMRPPRLPRPRPRPVVKPRP | 0.189
RRIRMRPPRLPRPRPRPVWDPRP | -0.136
RRIRMRPPRLPRPRPRPVWRPRP | 0.947
RRIRMRPPRLPRPRPRPVYSPRP | -0.248
RRIRMRPPRLPRPRPRPWAPPRP | 0.214
RRIRMRPPRLPRPRPRPWATPRP | 0.194
RRIRMRPPRLPRPRPRPWAWPRP | -0.0978
RRIRMRPPRLPRPRPRPWAYPRP | -0.012
RRIRMRPPRLPRPRPRPWCAPRP | 0.204

Sequence | shrunken log2 fold change
RRIRMRPPRLPRPRPRPWCFPRP | -0.144
RRIRMRPPRLPRPRPRPWCHPRP | 0.0355
RRIRMRPPRLPRPRPRPWDWPRP | 0.794
RRIRMRPPRLPRPRPRPWFDPRP | 0.00362
RRIRMRPPRLPRPRPRPWFGPRP | 0.134
RRIRMRPPRLPRPRPRPWFRPRP | -0.305
RRIRMRPPRLPRPRPRPWFVPRP | -0.283
RRIRMRPPRLPRPRPRPWGFPRP | 0.0809
RRIRMRPPRLPRPRPRPWGQPRP | -0.0394
RRIRMRPPRLPRPRPRPWGRPRP | 0.389
RRIRMRPPRLPRPRPRPWHDPRP | 0.162
RRIRMRPPRLPRPRPRPWHIPRP | -0.0015
RRIRMRPPRLPRPRPRPWHMPRP | 0.00487
RRIRMRPPRLPRPRPRPWIQPRP | -0.228
RRIRMRPPRLPRPRPRPWKAPRP | 0.0518
RRIRMRPPRLPRPRPRPWKNPRP | 0.0328
RRIRMRPPRLPRPRPRPWLAPRP | 0.0737
RRIRMRPPRLPRPRPRPWLKPRP | -0.11
RRIRMRPPRLPRPRPRPWNQPRP | -0.0405
RRIRMRPPRLPRPRPRPWNRPRP | -0.51
